Experimental findings from article PMC5361862, “Insights into ClpXP proteolysis: heterooligomerization and partial deactivation enhance chaperone affinity and substrate turnover in Listeria monocytogenes” (Chemical Science, 2016) are described below.

For orientation: stoichiometry N means a count of units in the complex or per binding partner.

Assay [1] addresses Listeria monocytogenes ClpX chaperone (LmClpX) (Listeria monocytogenes) (UniProt Q8Y7K9).
The target is the same in assay [2]. This is another data set of the same source.
The target of assay [3] is LmClpP2 treated with beta-lactone D3 (Listeria monocytogenes). The experiment in a line: not stated; oligomeric state of LmClpP2 after treatment with inhibitors (E2, D3, Aoc-CMK, Leu-CMK), Fig. S4; method and conditions are in the ESI.
In assay [4] the target is partially Aoc-CMK-modified LmClpP2 homotetradecamer (Listeria monocytogenes). Described as above.
Assay [5] has as its target Listeria monocytogenes ClpX chaperone (LmClpX) (Listeria monocytogenes) (UniProt Q8Y7K9). The source holds these as a separate data set.
Assay [6] has as its target T1, LmClpXP2 (Listeria monocytogenes, UniProt Q9RQI6).
T1 construct: gene clpP; ClpP2 homotetradecamer (LmClpP14) with hexameric chaperone LmClpX6
Nature of the assay: proteolysis of GFP-SsrA, fluorescence. The format is biochemical.

Assay [7] addresses Listeria monocytogenes ClpP2 homotetradecamer (LmClpP2), unmodified (Listeria monocytogenes). The experiment in a line: not stated; oligomeric state of LmClpP2 after treatment with inhibitors (E2, D3, Aoc-CMK, Leu-CMK), Fig. S4; method and conditions are in the ESI.
The target in assay [8] is T2, LmClpP2 (Listeria monocytogenes, UniProt Q9RQI6).
T2 construct: gene clpP; purified homotetradecamer; construct details in ESI
Nature of the assay: peptidase assay, Ac-Ala-hArg-Leu-ACC hydrolysis. Type of assay: biochemical. The following applies: 1 μM ClpP; 200 μM substrate; inhibitor 1, 10, 100 μM; no ClpX; covalent.

Assay [9] concerns the target T1, LmClpXP2. The experiment in a line: proteolysis of GFP-SsrA, fluorescence. The format is biochemical. Particulars: with LmClpX; inhibitor 1, 10, 100 μM; covalent; inhibition.
The target in assay [10] is LmClpP2 treated with Leu-CMK (Listeria monocytogenes). Nature of the assay: not stated; oligomeric state of LmClpP2 after treatment with inhibitors (E2, D3, Aoc-CMK, Leu-CMK), Fig. S4; method and conditions are in the ESI.

Where a SMILES comes first, the peptide text is derived from it. [ ]: non-standard residue; d: D form. The star is where a group is joined. Phe(3,4-Cl2) = N[C@@H](Cc1ccc(Cl)c(Cl)c1)C(=O)O; hArg = N=C(N)NCCCC[C@H](N)C(=O)O; Aoc(2) = CCCCCC[C@H](N)C(=O)O; CH2Cl = ClC*

On to LmClpP2(S98A) homocomplex (enzyme), for which, in assay [1], the K app from unfolding activity on GFP-LmSsrA (0.125 uM) with 0.4 uM LmClpX6 and varying concentrations of LmClpP14 (S98A homocomplex) turned out to be 2360 nM.

With “LmClpP1/2 heterooligomeric complex, wild type (LmClpP1^wt/2^wt)”, in assay [2], the K app from protease activity of LmClpXP1/2 at varying concentrations of LmClpP1/2 (LmClpP14) stood at 85 nM.

As for “LmClpP2 treated with beta-lactone D3 (enzyme)”, the stoichiometry N in [3] was 14.

Regarding “LmClpP1/2 heterocomplex containing Ser98 to Ala mutations”, in assay [1], the K app from unfolding activity on GFP-LmSsrA (0.125 uM) with 0.4 uM LmClpX6 and varying concentrations of LmClpP14 (S98A heterocomplex) turned out to be 224 nM.

For “partially Aoc-CMK-modified LmClpP2 homotetradecamer (enzyme)”, the stoichiometry N in assay [4] came to 14. The protease activity (GFP-SsrA degradation) of LmClpXP2 at incremental Aoc-CMK concentrations, DMSO control as 100%; strongest at 5 uM Aoc-CMK, abolished at 50 uM in assay [5] came out at 162%.

On to `CCCCCC[C@H](NC(=O)[C@H](CCCCNC(=N)N)NC(=O)[C@H](Cc1ccc(Cl)c(Cl)c1)NC(C)=O)C(=O)CCl` [Aoc-CMK] (Ac-[Phe(3,4-Cl2)]-[hArg]-[Aoc(2)]-CH2Cl), for which the activity at 5 µM in [6] was determined as 162%.

Turning to “Listeria monocytogenes ClpP2 homotetradecamer (LmClpP2), unmodified (enzyme)”, the stoichiometry N in assay [7] came to 14.

For `COC(=O)c1ccc(OC(=O)CCc2cc(OC)c(OC)c(OC)c2)cc1` [AV170], the “% activity” value in [8] is “AV170 and both CMK inhibitors were the most effective against LmClpP2”; in [9], “AV170 turned out to be the most effective inhibitor against each complex”.

Take LmClpP2 treated with Leu-CMK (enzyme): the stoichiometry N in [10] is 14.
